Reference: patent US20250215104A1 (WALDEN BIOSCIENCES, published 2025)
Positions count from the first letter of the chain named. Names may count otherwise.

T1: mouse cell surface uPAR (muPAR) (mouse, UniProt P35456 24-298)
T1 construct: whole, on cells; also called mouse uPAR
T1 sequence (looked up): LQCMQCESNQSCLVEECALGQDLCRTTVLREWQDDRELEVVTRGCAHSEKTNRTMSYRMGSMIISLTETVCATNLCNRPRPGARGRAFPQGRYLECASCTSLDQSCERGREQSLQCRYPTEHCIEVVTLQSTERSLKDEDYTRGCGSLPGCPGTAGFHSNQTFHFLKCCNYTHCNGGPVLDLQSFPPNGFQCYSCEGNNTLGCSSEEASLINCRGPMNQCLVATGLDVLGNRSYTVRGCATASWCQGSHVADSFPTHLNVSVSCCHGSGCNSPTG

B1: WAb0014 (antibody)
heavy: not shown
light: DIQMTQSPSSLSASVGDRVTITCSARQSVSYMYWYQQKPGKAPKLLIYRTSNLASGVPSRFSGSGSGTDFTLTISSLQPEDFATYYCQQYHSYPPTFGGGTKVEIKRTVAAPSVFIFPPSDEQLKSGTASVVCLLNNFYPREAKVQWKVDNALQSGNSQESVTEQDSKDSTYSLSSTLTLSKADYEKHKVYACEVTHQGLSSPVTKSFNRGEC
notes: also called original candidate; WAL0921 without P330G
B2: WAL0921-ΔK (antibody)
heavy: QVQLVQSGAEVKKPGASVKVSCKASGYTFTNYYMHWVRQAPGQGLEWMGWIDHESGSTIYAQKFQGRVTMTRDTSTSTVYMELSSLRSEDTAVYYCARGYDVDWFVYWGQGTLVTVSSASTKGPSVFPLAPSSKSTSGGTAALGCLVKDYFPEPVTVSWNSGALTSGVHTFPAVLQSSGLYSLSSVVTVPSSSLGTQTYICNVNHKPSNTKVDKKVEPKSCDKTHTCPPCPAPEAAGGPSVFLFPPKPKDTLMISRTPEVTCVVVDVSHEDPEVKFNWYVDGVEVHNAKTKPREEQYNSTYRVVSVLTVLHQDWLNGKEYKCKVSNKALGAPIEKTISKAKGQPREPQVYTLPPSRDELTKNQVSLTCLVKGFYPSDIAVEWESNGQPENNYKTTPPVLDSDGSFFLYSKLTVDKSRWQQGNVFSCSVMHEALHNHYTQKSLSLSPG
light: B1 light
notes: Same as WAL0921 but without the C-terminal lysine of the heavy chain (K448 of the whole heavy chain); also called WAL0921 without K448
B3: WAb0014 (antibody, human IgG1)
heavy: not shown
light: B1 light
notes: human kappa; also called initial anti-suPAR antibody; original candidate; copies: 2 + 2
B4: WAb0006 (antibody, human IgG1, V domains shown)
VH: QVQLVQSGAEVKKPGASVKVSCKASGYTFTSHYIQWVRQAPGQGLEWMGWIDHENGNTIYDQKFQGRVTMTRDTSTSTVYMELSSLRSEDTAVYYCARGTDVDWFVYWGQGTLVTVSS
VL: DIQMTQSPSSLSASVGDRVTITCSARSSVSYMYWYQQKPGKAPKLLIYRTSNLASGVPSRFSGSGSGTDFTLTISSLQPEDFATYYCQQYHSYPPTFGGGTKVEIKR
notes: The listing names these entries 'WAb CD0006'; Fc region identical to WAb0014 (human IgG1, L235A, L236A); human kappa; also called original backup candidate
B5: WAb0011 (antibody, V domains shown)
VH: B4 VH with S31G, H32S, I34V, Q35H, T100Y
VL: DIQMTQSPSSLSASVGDRVTITCSARSSVSYMYWYQQKPGKAPKLLIYRTSNLASGVPSRFSGSGSGTDFTLTISSLQPEDFATYYCQQYHSYPPTFGGGTKVEIK
notes: constant regions not tied to this antibody; also called WAb CD0011
B6: WAb0015 (antibody, V domains shown)
VH: QVQLVQSGAEVKKPGASVKVSCKASGYTFTNYYIHWVRQAPGQGLEWMGWISPDSGGTKYAQKFQGRVTMTRDTSTSTVYMELSSLRSEDTAVYYCARGYDVDWFVYWGQGTLVTVSS
VL: B5 VL
notes: constant regions not tied to this antibody; also called WAb CD0015
B7: WAb0008 (antibody, IgG2a, V domains shown)
VH: B4 VH
VL: B5 VL
notes: The listing names these entries 'WAb CD0008'; WAb0006 VH + mIgG2a Fc with L235A and L236A; WAb0006 VL + mouse kappa constant; also called WAb008; mouse IgG2a version of WAb0006
B8: WAb0017 (antibody, V domains shown)
VH: B4 VH with T30S, S31A, H32Y, I34M, Q35H, T100Y
VL: B5 VL with S24R, S27Q
notes: constant regions not tied to this antibody; also called WAb CD0017
B9: WAb0020 (antibody, V domains shown)
VH: B4 VH with I34V, Q35H, T100Y
VL: B5 VL
notes: constant regions not tied to this antibody; also called WAb CD0020
B10: WAb0019 (antibody, V domains shown)
VH: B4 VH with T30S, H32Y, I34M, Q35H, D61A, T100Y
VL: B5 VL
notes: constant regions not tied to this antibody; also called WAb CD0019
B11: WAb0018 (antibody, V domains shown)
VH: B4 VH with S31N, H32Y, I34M, Q35H, T100Y
VL: B5 VL with R26S, V29I
notes: constant regions not tied to this antibody; also called WAb CD0018
B12: WAb0013 (antibody, V domains shown)
VH: B6 VH with I34M, S52D, P53H, D54E, S55N, G57S, K59I
VL: B5 VL with S27Q
notes: constant regions not tied to this antibody; also called WAb CD0013
B13: WAb0016 (antibody, V domains shown)
VH: B6 VH with D54S
VL: B5 VL
notes: constant regions not tied to this antibody; also called WAb CD0016
B14: WAb0012 (antibody, V domains shown)
VH: B4 VH with S31G, H32Y, I34M, Q35H, T100Y
VL: B5 VL with S27Q, V29I
notes: constant regions not tied to this antibody; also called WAb CD0012

Experiments:
[1] = biological target: T2, human soluble urokinase plasminogen activator receptor (suPAR) (human, UniProt Q03405 23-303, limits assumed); assay: dissociation rate (kdis) on human suPAR; method not stated
T2 construct: also called hsuPAR; human suPAR
T2 sequence (Q03405 23-303 limits assumed): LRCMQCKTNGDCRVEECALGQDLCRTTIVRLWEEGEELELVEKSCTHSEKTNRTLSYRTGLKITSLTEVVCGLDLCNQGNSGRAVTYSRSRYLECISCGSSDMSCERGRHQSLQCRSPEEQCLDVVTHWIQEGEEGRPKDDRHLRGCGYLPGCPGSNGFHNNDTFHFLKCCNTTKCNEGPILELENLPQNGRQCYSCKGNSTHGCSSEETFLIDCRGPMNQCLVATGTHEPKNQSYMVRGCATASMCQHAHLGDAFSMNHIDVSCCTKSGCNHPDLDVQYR

[2] = biological target: T3, Fc-gammaR1 receptor recombinant protein, biotinylated (Homo sapiens (Human), UniProt P12314 16-292, Biotinylated for capture on the sensor; the site of biotin is not stated in the passages seen.); assay: BLI (Octet Red96E), biotinylated Fc-gammaR1 on streptavidin sensor, antibody as analyte
T3 construct: also called Fc-gammaR1 isoform
T3 sequence (P12314 16-292 limits assumed, form in doubt): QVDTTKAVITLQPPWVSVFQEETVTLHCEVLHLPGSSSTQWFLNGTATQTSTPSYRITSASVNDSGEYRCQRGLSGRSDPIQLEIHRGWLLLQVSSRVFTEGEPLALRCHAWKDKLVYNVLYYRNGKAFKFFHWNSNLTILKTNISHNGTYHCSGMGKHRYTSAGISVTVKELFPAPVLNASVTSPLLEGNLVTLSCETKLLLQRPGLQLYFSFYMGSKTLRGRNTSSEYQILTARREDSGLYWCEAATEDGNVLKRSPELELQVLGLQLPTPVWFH
Protocol: Antibody induced immune response is known to be mediated by interaction with Fc-gamma receptors. Immunologic response potential of WAL0921-ΔK was assessed biophysically on an Octet Red96E platform by measuring the binding affinity to Fc-gammaR1, high affinity Fc-gammaR2a and high affinity Fc-gammaR3a receptor recombinant proteins.
Biotinylated Fc-gamma proteins were procured from Acro Biosystems and immobilized on a streptavidin biosensor. Increasing concentrations of analyte WAL0921-ΔK were then applied, and responses measured. Binding affinity (KD, nM) was calculated from the response rate constants as described above.

[3] = biological target: T4, human neonatal FcRn receptor (hFcRn), biotinylated (human, UniProt P55899 24-297, biotinylated (site not stated)); assay: BLI (Octet Red96E), biotinylated hFcRn on SA sensor, WAb0014 as analyte, acidic conditions (pH 6)
T4 construct: also called FcRn receptors; neonatal FcRn receptors
T4 sequence (P55899 24-297 limits assumed, form in doubt): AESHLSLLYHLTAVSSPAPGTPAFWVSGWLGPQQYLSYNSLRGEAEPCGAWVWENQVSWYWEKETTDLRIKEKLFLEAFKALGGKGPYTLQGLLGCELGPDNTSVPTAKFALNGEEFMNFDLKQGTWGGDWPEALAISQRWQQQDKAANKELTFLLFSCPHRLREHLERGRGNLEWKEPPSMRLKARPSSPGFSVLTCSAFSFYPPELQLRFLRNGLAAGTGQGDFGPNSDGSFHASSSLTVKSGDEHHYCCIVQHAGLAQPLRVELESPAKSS
Protocol: Biotinylated hFcRn protein was sourced from Acro Biosystems and immobilized on a SA biosensor. […] Binding affinity (KD, nM) was calculated from the response rate constants as described above.

cynomolgus suPAR = biological target: T5, cynomolgus suPAR (cynomolgus, UniProt Q9GK78 23-303, limits assumed); assay: BLI (Octet Red 96E), antibody immobilized
T5 construct: also called Cynomolgus suPAR isoform protein; cynomolgus uPAR
T5 sequence (Q9GK78 23-303 limits assumed): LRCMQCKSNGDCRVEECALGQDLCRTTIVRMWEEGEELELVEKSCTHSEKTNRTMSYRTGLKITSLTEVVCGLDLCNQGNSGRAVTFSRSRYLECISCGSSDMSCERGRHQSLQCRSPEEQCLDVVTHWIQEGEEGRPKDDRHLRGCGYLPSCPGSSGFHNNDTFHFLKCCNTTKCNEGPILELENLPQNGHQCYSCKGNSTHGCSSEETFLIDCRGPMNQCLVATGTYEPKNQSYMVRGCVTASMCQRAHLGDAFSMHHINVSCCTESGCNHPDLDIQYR
From the text: Recombinantly expressed proteins for hsuPAR isoform 1-D2D3 fragment and hsuPAR-3 isoforms were custom generated in HEK or CHO cells and purified by Genscript from the known amino-acid sequence of hsuPAR-1 and hsuPAR-3 respectively. Cynomolgus suPAR isoform protein was commercially obtained from Creative Biomart.

[4] = biological target: T6, human suPAR (hsuPAR) recombinant protein (human, UniProt Q03405 23-303); assay: BLI (Octet Red96E), WAb0014 immobilized on AHC sensor, hsuPAR as analyte
T6 construct: it is written here as the same molecule; also called recombinant hsuPAR
T6 sequence (Q03405 23-303): as the sequence (Q03405 23-303 limits assumed) above
Protocol: (§1) Analyte global association (kₐ) and disassociation […] rates were calculated using in-built functions to determine binding affinity (KD)

[5] = biological target: T7, cell surface human uPAR (huPAR) (human, UniProt Q03405 23-305); assay: flow cytometry on human podocytes, FITC secondary antibody, MFI against concentration
T7 construct: whole, on cells; also called cell surface huPAR; cell surface uPAR
T7 sequence (Q03405 23-305): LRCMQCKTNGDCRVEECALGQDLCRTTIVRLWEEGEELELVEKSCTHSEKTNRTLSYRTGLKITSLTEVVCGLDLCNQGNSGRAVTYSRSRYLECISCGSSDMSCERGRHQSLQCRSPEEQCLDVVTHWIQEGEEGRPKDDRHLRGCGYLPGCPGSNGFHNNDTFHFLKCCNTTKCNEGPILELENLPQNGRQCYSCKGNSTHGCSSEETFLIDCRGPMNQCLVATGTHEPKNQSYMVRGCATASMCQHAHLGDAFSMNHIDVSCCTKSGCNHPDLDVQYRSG
Protocol: After 2 cycles of wash to remove any unbound antibody, cells were incubated with 10 μg/mL of a goat-anti-human-FITC conjugated secondary antibody for 1 hr at 4° C.

[6] = biological target: T6, human suPAR (hsuPAR) recombinant protein; assay: BLI (Octet Red96E), hsuPAR immobilized on streptavidin sensor, WAb0014 as analyte
Protocol: as §1

[7] = biological target: T1, mouse cell surface uPAR (muPAR); assay: flow cytometry on undifferentiated mouse podocytes, FITC secondary antibody
Protocol: Gene expression of mouse uPAR in undifferentiated mouse podocyte cells was undertaken using commercial gene specific qPCR probes for mouse and human uPAR and normalized to 18S housekeeping gene expression using manufacturers RT-qPCR protocol (Thermofisher). Separately, mouse podocytes were incubated with 100 μg/mL concentration of anti-hsuPAR and Proteintech positive control anti-mouse uPAR antibodies at 4° C. for 1 hr. After 2 cycles of wash to remove any unbound antibody, cells were incubated with 10 μg/mL of a goat-anti-human-FITC or goat-anti-mouse-FITC or goat-anti-rabbit-FITC conjugated secondary antibody for 1 hr at 4° C. After washing any unbound secondary antibody, cell suspensions for each sample was gated for single cells and population mean fluorescence intensity was recorded and analyzed on a Luminex Flowsight flow cytometer. Mean fluorescence intensity for test samples was plotted in GraphPad Prism software and compared to positive control sample data.

Binder	koff [1] [s⁻¹]	also measured
B1	2.57e-07	–
B2	–	Kd [2]: 1750 nM
B3	–	Kd [3]: 0.025 nM; Kd (cynomolgus suPAR): 10.5 nM; Kd [4]: 0.69 to 2 nM; Kd [5]: 1 to 3 nM; Kd [6]: < 0.1 nM; binding result [7]: no binding (tested: 100 µg/mL)
B4	–	binding result [7]: no binding (tested: 100 µg/mL)
B5	2.36e-07	–
B6	2.97e-07	–
B7	–	binding result [7]: no binding (tested: 100 µg/mL)
B8	3.63e-07	–
B9	3.42e-07	–
B10	3.43e-07	–
B11	2.6e-07	–
B12	2.44e-07	–
B13	0.000213	–
B14	2.93e-07	–
